Experimental data published in article PMC9758051.

How the values were obtained:
endogenous metal (Zn2+) = test: mass spectrometry (MS) of receptor-mini-Gs complex; settings: metal-binding read on the tβ1AR-mini-Gs complex; mean ± s.d. from three independent experiments; read off a plot
[1] = target: tβ1AR variant with alanine mutations on TM5 (E233A and E236A) (turkey (M. gallopavo)) (UniProt P07700); test: native MS; tβ1AR with mini-Gα at 1:1.2 molar ratio, 4 °C, at least 20 min, coupling buffer (10 mM HEPES, 10 mM Tris-HCl pH 7.4, 200 mM NaCl, 1 mM MgCl2, 5 mM GDP, 0.05% DDM) with isoprenaline 1 at 25 μM
[2] = target: turkey β1-adrenergic receptor, engineered thermostabilised construct (modified β44-m23) (turkey (M. gallopavo)) (UniProt P07700); test: native MS; tβ1AR 5 μM with mini-Gs 6 μM, orciprenaline 2 at 250 μM
[3] = target: turkey β1-adrenergic receptor, engineered thermostabilised construct (modified β44-m23) (turkey (M. gallopavo)) (UniProt P07700); test: native MS; tβ1AR 5 μM with mini-Gs 6 μM, 1-phenyl-2[(propan-2-yl)amino]ethan-1-ol 3 at 250 μM
[4] = target: turkey β1-adrenergic receptor, engineered thermostabilised construct (modified β44-m23) (turkey (M. gallopavo)) (UniProt P07700); test: native MS; tβ1AR 5 μM with mini-Gs 6 μM, isoprenaline derivative 5 at 250 μM

Substance | other: inhibition of metal-binding (%) (endogenous metal (Zn2+)) | percent attenuation of coupling against wild-type tβ1AR [1] [%] | percent reduction of mini-Gs coupling against isoprenaline 1 [2] [%] | percent attenuation of mini-Gs coupling against isoprenaline 1 [3] [%] | percent attenuation of mini-Gs coupling against isoprenaline 1 [4] [%]
turkey β1-adrenergic receptor, engineered thermostabilised construct (modified β44-m23) (from UniProt P07700) E285A; H286A | 11 |  |  |  | 
mini-Gs construct R414, engineered minimal Gα subunit (engineered Gαs) |  | 21.2 | 60 | 90 | 75
